One may read the Kd as the constant that tells how readily two partners part at equilibrium.

Results on one molecule are retold here after PMC9581579 (2022).

Assay [1] deals with T1, His-Avi-Trx-Frmpd1-pept (Frmpd1 residues 895–938) (UniProt A2AKB4 895-938, not fully specified; biotin (biotinylated in E. coli by native BirA ligase)).
T1 chain: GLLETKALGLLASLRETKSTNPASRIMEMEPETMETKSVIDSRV
The assay is described as follows: BLI. Background: BLI is a label-free optical method that tracks binding on a fibre tip over time.

Assay [2] concerns the target T1, His-Avi-Trx-Frmpd1-pept (Frmpd1 …). The experiment in a line: BLI; in the presence of Gαt*.

B1: HMT-Gpsm2 (His6-MBP-TEV site-Gpsm2) (natural protein)
chain: MEENLISMREDHSFHVRYRMEASCLELALEGERLCKSGDCRAGVSFFEAAVQVGTEDLKTLSAIYSQLGNAYFYLHDYAKALEYHHHDLTLARTIGDQLGEAKASGNLGNTLKVLGNFDEAIVCCQRHLDISRELNDKVGEARALYNLGNVYHAKGKSFGCPGPQDVGEFPEEVRDALQAAVDFYEENLSLVTALGDRAAQGRAFGNLGNTHYLLGNFRDAVIAHEQRLLIAKEFGDKAAERRAYSNLGNAYIFLGEFETASEYYKKTLLLARQLKDRAVEAQSCYSLGNTYTLLQDYEKAIDYHLKHLAIAQELNDRIGEGRACWSLGNAYTALGNHDQAMHFAEKHLEISREVGDKSGELTARLNLSDLQMVLGLSYSTNNSIMSENTEIDSSLNGVRPKLGRRHSMENMELMKLTPEKVQNWNSEILAKQKPLIAKPSAKLLFVNRLKGKKYKTNSSTKVLQDASNSIDHRIPNSQRKISADTIGDEGFFDLLSRFQSNRMDDQRCCLQEKNCHTASTTTSSTPPKMMLKTSSVPVVSPNTDEFLDLLASSQSRRLDDQRASFSNLPGLRLTQNSQSVLSHLMTNDNKEADEDFFDILVKCQGSRLDDQRCAPPPATTKGPTVPDEDFFSLILRSQGKRMDEQRVLLQRDQNRDTDFGLKDFLQNNALLEFKNSGKKSADH
Regarding B1, the Kd in assay [1] is 286 nM; in assay [2], 198 nM.
